Laboratory results taken from publication PMC11287377, “tRNA ^Arg binds in vitro TDP-43 RNA recognition motifs and ligand of Ate1 protein LIAT1” (microPublication Biology, 2024).

B1: human TDP-43 NTD (residues 1-85) (domain or fragment, UniProt Q13148 1-85, looked up)
chain: MSEYIRVTEDENDEPIEIPSEDDGTVLLSTVTAQFPGACGLRYRNPVSQCMRGVRLVEGILHAPDAGWGNLVYVVNYPKDNKRKM
notes: Tags removed with TEV protease; also called hTDP-43 NTD; source: E. coli BL21 KRX, purified (NiNTA, TEV digestion, SEC)
B2: human TDP-43 NLS-RRM1-RRM2 (residues 85-266) (domain or fragment, UniProt Q13148 85-266, looked up)
chain: MDETDASSAVKVKRAVQKTSDLIVLGLPWKTTEQDLKEYFSTFGEVLMVQVKKDLKTGHSKGFGFVRFTEYETQVKVMSQRHMIDGRWCDCKLPNSKQSQDEPLRSRKVFVGRCTEDMTEDELREFFSQYGDVMDVFIPKPFRAFAFVTFADDQIAQSLCGEDLIIKGISVHISNAEPKHNS
notes: Tags removed with TEV protease; also called hTDP-43 NLS-RRM1-RRM2; source: E. coli BL21 KRX, purified (NiNTA, TEV digestion, SEC)
B3: human TDP-43 NTD-ΔNLS-RRM1-RRM2 (residues 1-85 and 101-266) (domain or fragment, UniProt Q13148 1-85, looked up)
chain: MSEYIRVTEDENDEPIEIPSEDDGTVLLSTVTAQFPGACGLRYRNPVSQCMRGVRLVEGILHAPDAGWGNLVYVVNYPKDNKRKMQKTSDLIVLGLPWKTTEQDLKEYFSTFGEVLMVQVKKDLKTGHSKGFGFVRFTEYETQVKVMSQRHMIDGRWCDCKLPNSKQSQDEPLRSRKVFVGRCTEDMTEDELREFFSQYGDVMDVFIPKPFRAFAFVTFADDQIAQSLCGEDLIIKGISVHISNAEPKHNS
notes: Internal deletion of the NLS linker (residues 86-100); no replacing linker is mentioned; Tags removed with TEV protease; also called hTDP-43 NTD-ΔNLS-RRM1-RRM2; source: E. coli BL21 KRX, purified (NiNTA, TEV digestion, SEC)
B4: recombinant mouse LIAT1 (ligand of Ate1 protein), full length (natural protein, UniProt Q810M6 1-228, looked up)
chain: MAGRGGTGAAEYGEEGEEEEEEEAREGGAEGSPGSKLPPIVGTASELAKRKVKKKKKKKKTKGSGKGDADKHHSRGRKNQPLSSSFHDILNPHKDHGLRAEPRDKEENRQTLPYSYSINHPCFAEIEDTLSSQINESLRWDGILTDPEAEKERIRIYKLNRRKRYRLMALKCFHSDPCVEESVENLPYLSDKDCSPCSKQPSSKGDHAHSYFEASKLLHPELATTVAE
notes: LIAT1 (ligand of Ate1), Mus musculus, full length, theoretical molecular weight ~24 kDa; Tags removed with TEV protease; also called mLIAT1; source: E. coli BL21 KRX, purified (NiNTA, TEV digestion, SEC)

Target: the molecule itself
Experiment: SEC; 500 uL of tagless purified protein on Superdex 75 10/30 in SEC buffer (150 mM KCl, 20 mM NaCl, 1 mM MgCl2, 5% glycerol, 50 mM HEPES pH 7.7), 0.5 mL/min; size from a calibration curve of standard proteins

Stoichiometry N, 2:
B1
B2
B3
B4
